One test has as its target T1, GST-ActI-SIPA1L2-1-624 (rat, UniProt Q5JCS6 1-624).
T1 sequence: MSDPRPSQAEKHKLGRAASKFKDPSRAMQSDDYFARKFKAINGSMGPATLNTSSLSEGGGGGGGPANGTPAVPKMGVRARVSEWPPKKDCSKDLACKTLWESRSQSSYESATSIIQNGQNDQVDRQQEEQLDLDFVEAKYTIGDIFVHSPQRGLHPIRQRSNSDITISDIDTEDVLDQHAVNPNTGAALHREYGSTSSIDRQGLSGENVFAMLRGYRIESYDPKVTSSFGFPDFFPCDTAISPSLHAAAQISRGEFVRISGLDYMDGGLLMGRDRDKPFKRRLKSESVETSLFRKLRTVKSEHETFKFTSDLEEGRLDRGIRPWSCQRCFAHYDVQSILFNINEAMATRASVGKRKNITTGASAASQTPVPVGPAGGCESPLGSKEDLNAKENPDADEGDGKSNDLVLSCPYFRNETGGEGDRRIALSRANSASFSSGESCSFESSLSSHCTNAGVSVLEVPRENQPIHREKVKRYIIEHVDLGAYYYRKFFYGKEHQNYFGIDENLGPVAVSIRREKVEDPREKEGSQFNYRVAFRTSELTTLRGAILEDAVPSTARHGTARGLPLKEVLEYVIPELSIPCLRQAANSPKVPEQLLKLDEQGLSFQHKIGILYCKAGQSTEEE
Kind of test: pull-down.

A further test has as its target T2, GST-SIPA1l2-86-99 (rat, UniProt Q5JCS6 86-99).
T2 chain: PKKDCSKDLACKTL
Put plainly: pull-down.

B1: MBP-TrkB-454-821 (domain or fragment)
chain: not shown
On to B1, for which the binding result with GST-ActI-SIPA1L2-1-624 was “binds”. For KLARHSKFGMKG [MBP-TrkB-454-465], in the test with GST-SIPA1l2-86-99, the binding result was “binds”.

Values taken from publication doi:10.1101/556266 (bioRxiv, 2019).
